The values below come from publication PMC4858697, “Crystal structure of TRAF1 TRAF domain and its implications in the TRAF1-mediated intracellular signaling pathway” (Scientific Reports, 2016).

First the molecules themselves.
B1: TANK peptide (SVPIQCTDKT) (peptide)
peptide: SVPIQCTDKT
notes: also called I-TRAF; source: synthetic peptide (Peptron, Dae-jeon, South Korea)
B2: human TRAF1 TRAF domain (residues 220-416), containing the TRAF-N coiled-coil domain and the TRAF-C domain (domain or fragment, UniProt Q13077 220-416, looked up)
chain: HQSQLDRERILSLEQRVVELQQTLAQKDQALGKLEQSLRLMEEASFDGTFLWKITNVTRRCHESACGRTVSLFSPAFYTAKYGYKLCLRLYLNGDGTGKRTHLSLFIVIMRGEYDALLPWPFRNKVTFMLLDQNNREHAIDAFRPDLSSASFQRPQSETNVASGCPLFFPLSKLQSPKHAYVKDDTMFLKCIVETST
notes: TNF-receptor associated factor 1 (TRAF1), human, TRAF domain, amino acids 220-416, cloned into pET24a; Trimer in the crystal and in solution (SEC, MALS); also called wildtype TRAF1; not shown: His-tag, C-terminal, kept

Data set [1] deals with TANK peptide PEP (Homo sapiens) (UniProt Q92844). To be noted: cited from earlier work.
Sequence of TANK peptide PEP (Homo sapiens) (Q92844 178-198): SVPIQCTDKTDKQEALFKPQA
For data set [2], the target named is B2. In words: ITC; NanoITC; 1 mM TANK peptide injected into ~20 uM wildtype or mutant TRAF1 in the cell; PBS; 15 °C; 25 injections; single site model. To be noted: both partners purified. Background: ITC needs no label: the signal is the heat of the interaction.
Data set [3] deals with the molecule itself. The data set is described as follows: SEC; Superdex 200 10/30 gel filtration in 20 mM sodium citrate pH 5.0, 1 M NaCl.

For the molecule TRAF3 (from UniProt Q13114), the Kd in data set [1] was 23.9 µM.

For B1, binding in data set [2] was put at a Kd of 13.6 µM.

Turning to B2, the “stoichiometry N” value in data set [3] amounted to 3.

Usually Kd stands for the constant that tells how readily two partners part at equilibrium. One may read the stoichiometry N as a count of units in the complex or per binding partner.
